The results in this text go back to patent US20090081197A1, “Methods for Selection of Melanocortin Receptor-Specific Agents for Treatment of Obesity” (Palatin Technologies, Inc., priority 2007, published 2009).

In one assay the target is human MC1-R (human) (UniProt Q01726). The experiment in a line: radioligand competition, NDP-α-MSH, human MC1-R, normal system. Background: Displacement assays read how much labelled ligand stays bound in the presence of the test substance.
Assay [1] deals with human melanocortin 3 receptor (human) (UniProt P41968). Briefly: radioligand competition, [I125]-NDP-α-MSH, hMC3-R membranes.
Assay [2] shares this target. Briefly: radioligand competition, [I125]-NDP-α-MSH, hMC3-R membranes, 1 µM compound.
For assay [3], the target named is MC1-R of B-16 mouse melanoma cells (mouse) (UniProt Q01727). The experiment in a line: radioligand competition, [I125]-NDP-α-MSH, B-16 membranes, 1 µM compound.
For assay [4], the target named is human melanocortin 4 receptor (human) (UniProt P32245). Briefly: cell-based or functional assay.
Assay [5] concerns the target MC1-R of B-16 mouse melanoma cells (mouse) (UniProt Q01727). Briefly: radioligand competition, [I125]-NDP-α-MSH, B-16 membranes.
Assay [6] addresses human melanocortin 5 receptor (human) (UniProt P33032). Briefly: radioligand competition, [I125]-NDP-α-MSH, hMC5-R membranes.
For assay [7] the target is unchanged. The experiment in a line: radioligand competition, [I125]-NDP-α-MSH, hMC5-R membranes, 1 µM compound.
The target in assay [8] is human melanocortin 4 receptor (human) (UniProt P32245). Briefly: radioligand competition, [I125]-NDP-α-MSH, hMC4-R membranes, 1 µM compound.
For assay [9] the target is unchanged. The experiment in a line: radioligand competition, [I125]-NDP-α-MSH, hMC4-R membranes.

Sequence of human melanocortin 4 receptor (human) (P32245 whole entry): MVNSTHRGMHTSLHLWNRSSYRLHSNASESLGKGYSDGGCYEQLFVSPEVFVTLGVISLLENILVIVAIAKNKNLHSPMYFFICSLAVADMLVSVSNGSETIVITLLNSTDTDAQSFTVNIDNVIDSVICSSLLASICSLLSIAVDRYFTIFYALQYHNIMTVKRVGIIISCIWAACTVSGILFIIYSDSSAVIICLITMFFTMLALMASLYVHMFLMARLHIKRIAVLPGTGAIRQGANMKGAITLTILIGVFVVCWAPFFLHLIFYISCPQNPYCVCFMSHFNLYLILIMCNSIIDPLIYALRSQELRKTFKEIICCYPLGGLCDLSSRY
Sequence of MC1-R of B-16 mouse melanoma cells (mouse) (Q01727 whole entry): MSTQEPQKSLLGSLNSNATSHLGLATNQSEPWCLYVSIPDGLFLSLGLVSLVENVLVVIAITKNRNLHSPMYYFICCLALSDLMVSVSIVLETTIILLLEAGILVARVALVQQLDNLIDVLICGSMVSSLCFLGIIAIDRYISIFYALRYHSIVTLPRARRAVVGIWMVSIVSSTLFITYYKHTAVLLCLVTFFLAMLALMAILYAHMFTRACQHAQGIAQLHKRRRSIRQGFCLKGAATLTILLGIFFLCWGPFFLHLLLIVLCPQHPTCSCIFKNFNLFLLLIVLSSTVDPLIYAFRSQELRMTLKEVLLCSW
Sequence of human melanocortin 5 receptor (human) (P33032 whole entry): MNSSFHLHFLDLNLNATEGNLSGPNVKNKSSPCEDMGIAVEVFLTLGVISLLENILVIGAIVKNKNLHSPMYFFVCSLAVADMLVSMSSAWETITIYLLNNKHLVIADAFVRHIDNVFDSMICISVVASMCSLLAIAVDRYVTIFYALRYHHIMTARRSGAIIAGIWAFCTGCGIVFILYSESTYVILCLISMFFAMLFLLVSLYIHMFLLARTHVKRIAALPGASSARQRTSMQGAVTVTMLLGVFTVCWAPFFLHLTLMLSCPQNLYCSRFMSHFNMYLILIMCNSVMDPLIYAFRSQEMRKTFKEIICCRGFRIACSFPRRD
Sequence of human melanocortin 3 receptor (human) (P41968 whole entry): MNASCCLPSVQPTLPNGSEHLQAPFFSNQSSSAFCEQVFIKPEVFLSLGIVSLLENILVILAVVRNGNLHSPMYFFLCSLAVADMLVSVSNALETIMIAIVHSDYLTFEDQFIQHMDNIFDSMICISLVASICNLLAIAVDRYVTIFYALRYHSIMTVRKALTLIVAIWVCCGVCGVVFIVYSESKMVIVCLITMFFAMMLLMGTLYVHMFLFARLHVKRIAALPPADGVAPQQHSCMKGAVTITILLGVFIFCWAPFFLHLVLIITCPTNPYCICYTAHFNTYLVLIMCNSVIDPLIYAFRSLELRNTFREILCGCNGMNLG
Sequence of human MC1-R (human) (Q01726 whole entry): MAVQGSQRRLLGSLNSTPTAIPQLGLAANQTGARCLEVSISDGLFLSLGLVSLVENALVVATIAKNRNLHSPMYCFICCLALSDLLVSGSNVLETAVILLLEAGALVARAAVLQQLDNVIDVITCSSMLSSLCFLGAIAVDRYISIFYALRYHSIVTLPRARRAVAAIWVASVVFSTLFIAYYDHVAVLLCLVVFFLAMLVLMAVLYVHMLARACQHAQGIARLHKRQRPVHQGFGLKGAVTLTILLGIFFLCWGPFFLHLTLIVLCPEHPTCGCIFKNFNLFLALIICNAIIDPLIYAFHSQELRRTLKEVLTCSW

B1: Ac-Nle-cyclo(Asp-His-D-Nal 2-Arg-Nal 2-Lys)-OH (peptide)
peptide: XDHXRXK
modifications: N-terminal acetyl; Nle at 1 (X); D-Nal 2 at 4 (X); Nal 2 at 6 (X); cyclo(Asp 2 to Lys 7); free C-terminal acid
The term Ki denotes a measure of affinity in units of concentration, obtained from inhibition or displacement. Read a high Ki as a looser hold on the target. In general, Inhibition refers to the drop in the measured response relative to a control, in per cent. For the molecule B1, the Ki with human MC1-R (human) was found to be 250 pM; in assay [1], 300 pM; in assay [5], 200 pM; in [6], 200 pM; in assay [9] it was 20 pM. Besides, the Inhibition at 1 µM (NDP-α-MSH) in assay [2] came to 98%; in assay [3] it was 102%; in assay [7], 100%; in assay [8], 100%. In addition, the pA2 (antagonism of NDP-α-MSH-stimulated cAMP, Schild analysis), normal system in assay [4] stood at 8.1.
